{
  "source": "paper PMC7054686",
  "about": "“A revised model of TRAIL‐R2 DISC assembly explains how FLIP(L) can inhibit or promote apoptosis” (EMBO Reports, 2020)",
  "binders": {"B1": {"name": "recombinant FADD DED (amino acids 1–90) with an N‐terminal GST‐tag (domain or fragment)", "chain": "MDPFLVLLHSVSSSLSSSELTELKFLCLGRVGKRKLERVQSGLDLFSMLLEQNDLEPGHTELLRELLASLRRHDLLRRVDDFEAGAAAGA", "notes": "FADD, death effector domain, amino acids 1-90; Held by glutathione donor beads in the AlphaScreen; source: recombinant; not shown: GST, N-terminal, kept"}},
  "target": "recombinant FLIP DED1/2 (amino acids 1–184) with a C‐terminal His‐tag (UniProt O15519 1-184)",
  "test": "AlphaScreen or HTRF; cell-free AlphaScreen: FLIP DED1/2-His on nickel chelate acceptor beads, GST-FADD DED on glutathione donor beads; 25 mM Tris pH 7.5, 300 mM NaCl, 0.0007% Tween-20, 0.05% BSA; room temperature; 25 μl in 384-well plate",
  "settings": "both partners purified",
  "data": [
    {"binder": "B1", "values": [
      {"measurement": "binding result", "value": "binds"}
    ]}
  ]
}
